From article PMC3597688 (Nucleic Acids Research, 2013)
Several values for one entry are separate records, joined by “and”; a condition that tells them apart may be missing. Identical values can stand only once.

B1: ssoMCM F540A mutant (full length) (natural protein, Sulfolobus solfataricus, UniProt Q9UXG1 1-686, looked up)
chain: MEIPSKQIDYRDVFIEFLTTFKGNNNQNKYIERINELVAYRKKSLIIEFSDVLSFNENLAYEIINNTKIILPILEGALYDHILQLDPTYQRDIEKVHVRIVGIPRVIELRKIRSTDIGKLITIDGILVKVTPVKERIYKATYKHIHPDCMQEFEWPEDEEMPEVLEMPTICPKCGKPGQFRLIPEKTKLIDWQKAVIQERPEEVPSGQLPRQLEIILEDDLVDSARPGDRVKVTGILDIKQDSPVKRGSRAVFDIYMKVSSIEVSQKVLDEVIISEEDEKKIKDLAKDPWIRDRIISSIAPSIYGHWELKEALALALFGGVPKVLEDTRIRGDIHILIIGDPGTAKSQMLQFISRVAPRAVYTTGKGSTAAGLTAAVVREKGTGEYYLEAGALVLADGGIAVIDEIDKMRDEDRVAIHEAMEQQTVSIAKAGIVAKLNARAAVIAAGNPKFGRYISERPVSDNINLPPTILSRFDLIFILKDQPGEQDRELANYILDVHSGKSTKNIIDIDTLRKYIAYARKYVTPKITSEAKNLITDFAVEMRKKSSETPDSPILITPRQLEALIRISEAYAKMALKAEVTREDAERAINIMRLFLESVGVDMESGKIDIDTIMTGKPKSAREKMMKIIEIIDSLAVSSECAKVKDILKEAQQVGIEKSNIEKLLTDMRKSGIIYEAKPECYKKV
B2: ssoMCM G485P/G501P mutant (alpha5-linker mutant, full length) (natural protein, Sulfolobus solfataricus, UniProt Q9UXG1 1-686, looked up)
chain: MEIPSKQIDYRDVFIEFLTTFKGNNNQNKYIERINELVAYRKKSLIIEFSDVLSFNENLAYEIINNTKIILPILEGALYDHILQLDPTYQRDIEKVHVRIVGIPRVIELRKIRSTDIGKLITIDGILVKVTPVKERIYKATYKHIHPDCMQEFEWPEDEEMPEVLEMPTICPKCGKPGQFRLIPEKTKLIDWQKAVIQERPEEVPSGQLPRQLEIILEDDLVDSARPGDRVKVTGILDIKQDSPVKRGSRAVFDIYMKVSSIEVSQKVLDEVIISEEDEKKIKDLAKDPWIRDRIISSIAPSIYGHWELKEALALALFGGVPKVLEDTRIRGDIHILIIGDPGTAKSQMLQFISRVAPRAVYTTGKGSTAAGLTAAVVREKGTGEYYLEAGALVLADGGIAVIDEIDKMRDEDRVAIHEAMEQQTVSIAKAGIVAKLNARAAVIAAGNPKFGRYISERPVSDNINLPPTILSRFDLIFILKDQPPEQDRELANYILDVHSPKSTKNIIDIDTLRKYIAYARKYVTPKITSEAKNLITDFFVEMRKKSSETPDSPILITPRQLEALIRISEAYAKMALKAEVTREDAERAINIMRLFLESVGVDMESGKIDIDTIMTGKPKSAREKMMKIIEIIDSLAVSSECAKVKDILKEAQQVGIEKSNIEKLLTDMRKSGIIYEAKPECYKKV

Assays:
SEC = molecular target: the molecule itself; assay: SEC
[1] = molecular target: the molecule itself; assay: negative-stain electron microscopy and electron tomography

| Protein | stoichiometry N (SEC) | stoichiometry N [1] |
| --- | --- | --- |
| B1 | ~3 | 6 and 8 |
| B2 | ~3 |  |
